From patent publication US9580733B2, “Methods of producing 6-carbon chemicals via methyl-ester shielded carbon chain elongation” (INVISTA North America S.á r.l., priority 2012, dated 2017)

What was measured:
Type in all cases: biochemical
[1] = Thioesterase enzyme activity assay, adipyl-CoA to adipate; conditions: 667 μM adipyl-CoA, pH 7.4, 37° C., 20 min, vs empty vector control, FIG. 8
Procedure: A sequence encoding an N-terminal His-tag was added to the genes from Escherichia coli encoding the thioesterases of SEQ ID NOs: 1 and 2 respectively (see FIG. 7A), such that an N-terminal HIS tagged thioesterase could be produced. Each of the resulting modified genes was cloned into a pET15b expression vector under control of the T7 promoter. Each expression vector was transformed into a BL21[DE3] E. coli host. The resulting recombinant E. coli strains were cultivated at 37° C. in a 500 mL shake flask culture containing 50 mL Luria Broth (LB) media and antibiotic selection pressure, with shaking at 230 rpm. The culture was induced overnight at 17° C. using 0.5 mM IPTG.
The pellet from the induced shake flask culture was harvested via centrifugation. The pellet was resuspended and lysed in Y-per™ solution (ThermoScientific, Rockford, Ill.). The cell debris was separated from the supernatant via centrifugation. […]
The enzyme activity assay was performed in triplicate in a buffer composed of 50 mM phosphate buffer (pH=7.4), 0.1 mM Ellman's reagent, and 667 μM of adipyl-CoA (as substrate). […] The release of Coenzyme A was monitored by absorbance at 412 nm. The absorbance associated with the substrate only control, which contained boiled enzyme, was subtracted from the active enzyme assay absorbance and compared to the empty vector control.

[2] = Carboxylate reductase activity assay, adipate to adipate semialdehyde; conditions: enhanced by gene product of sfp, 2 mM adipate, room temperature, 20 min, vs empty vector control, FIG. 10
Procedure: A nucleotide sequence encoding a HIS-tag was added to the genes from Segniliparus rugosus and Segniliparus rotundus that encode the carboxylate reductases of SEQ ID NOs: 5 and 7, respectively (see FIGS. 7C and 7E), such that N-terminal HIS tagged carboxylate reductases could be produced. Each of the modified genes was cloned into a pET Duet expression vector along with a sfp gene encoding a HIS-tagged phosphopantetheine transferase from Bacillus subtilis, both under the T7 promoter. Each expression vector was transformed into a BL21[DE3] E. coli host and the resulting recombinant E. coli strains were cultivated at 37° C. in a 250 mL shake flask culture containing 50 mL LB media and antibiotic selection pressure, with shaking at 230 rpm. Each culture was induced overnight at 37° C. using an auto-induction media.
The pellet from each induced shake flask culture was harvested via centrifugation. Each pellet was resuspended and lysed via sonication, and the cell debris was separated from the supernatant via centrifugation. […]
Enzyme activity assays (i.e., from adipate to adipate semialdehyde) were performed in triplicate in a buffer composed of a final concentration of 50 mM HEPES buffer (pH=7.5), 2 mM adipate, 10 mM MgCl2, 1 mM ATP and 1 mM NADPH. […] The consumption of NADPH was monitored by absorbance at 340 nm.

[3] = ω-transaminase activity assay, reverse direction, 6-aminohexanoate to adipate semialdehyde; conditions: cell free extract, 10 mM 6-aminohexanoate, 10 mM pyruvate, 25° C., 24 h, vs empty vector control, FIG. 15
Procedure: (§1) A nucleotide sequence encoding a His-tag was added to the genes from Chromobacterium violaceum, Pseudomonas aeruginosa, Pseudomonas syringae, Rhodobacter sphaeroides, and Vibrio fluvialis encoding the ω-transaminases of SEQ ID NOs: 7, 8, 9, 10 and 12, respectively (see FIGS. 7E and 7F) such that N-terminal HIS tagged ω-transaminases could be produced. Each of the resulting modified genes was cloned into a pET21a expression vector under control of the T7 promoter and each expression vector was transformed into a BL21[DE3] E. coli host. The resulting recombinant E. coli strains were cultivated at 37° C. in a 250 mL shake flask culture containing 50 mL LB media and antibiotic selection pressure, with shaking at 230 rpm. Each culture was induced overnight at 16° C. using 1 mM IPTG.
(§2) The pellet from each induced shake flask culture was harvested via centrifugation. Each pellet was resuspended and lysed via sonication. The cell debris was separated from the supernatant via centrifugation and the cell free extract was used immediately in enzyme activity assays.
Enzyme activity assays in the reverse direction (i.e., 6-aminohexanoate to adipate semialdehyde) were performed in a buffer composed of a final concentration of 50 mM HEPES buffer (pH=7.5), 10 mM 6-aminohexanoate, 10 mM pyruvate and 100 μM pyridoxyl 5′ phosphate. Each enzyme activity assay reaction was initiated by adding cell free extract of the ω-transaminase gene product or the empty vector control to the assay buffer containing the 6-aminohexanoate and incubated at 25° C. for 24 h, with shaking at 250 rpm. The formation of L-alanine from pyruvate was quantified via RP-HPLC.

[4] = ω-transaminase activity assay, forward direction, adipate semialdehyde to 6-aminohexanoate; conditions: cell free extract, 10 mM adipate semialdehyde, 10 mM L-alanine, 25° C., 4 h, vs empty vector control, FIG. 16
Procedure: as §1, §2
Enzyme activity in the forward direction (i.e., adipate semialdehyde to 6-aminohexanoate) was confirmed for the transaminases of SEQ ID NO 7, SEQ ID NO 8, SEQ ID NO 9, SEQ ID NO 10 and SEQ ID NO 12. Enzyme activity assays were performed in a buffer composed of a final concentration of 50 mM HEPES buffer (pH=7.5), 10 mM adipate semialdehyde, 10 mM L-alanine and 100 μM pyridoxyl 5′ phosphate. Each enzyme activity assay reaction was initiated by adding a cell free extract of the ω-transaminase gene product or the empty vector control to the assay buffer containing the adipate semialdehyde and incubated at 25° C. for 4 h, with shaking at 250 rpm. The formation of pyruvate was quantified via RP-HPLC.

B1: SEQ ID NO 1: Escherichia coli thioesterase encoded by tesB (GenBank Accession No. AAA24665.1), N-terminal His-tagged (protein, listed as Escherichia coli)
chain: MSQALKNLLTLLNLEKIEEGLFRGQSEDLGLRQVFGGQVVGQALYAAKETVPEERLVHSFHSYFLRPGDSKKPIIYDVETLRDGNSFSARRVAAIQNGKPIFYMTASFQAPEAGFEHQKTMPSAPAPDGLPSETQIAQSLAHLLPPVLKDKFICDRPLEVRPVEFHNPLKGHVAEPHRQVWIRANGSVPDDLRVHQYLLGYASDLNFLPVALQPHGIGFLEPGIQIATIDHSMWFHRPFNLNEWLLYSVESTSASSARGFVRGEFYTQDGVLVASTVQEGVMRNHN
modifications: N-terminal His tag
[1]
  thioesterase activity for converting adipyl-CoA to adipate (release of Coenzyme A, absorbance at 412 nm): accepted adipyl-CoA as substrate

B2: SEQ ID NO 5: Segniliparus rugosus carboxylate reductase (Genbank Accession No. EFV11917.1) (protein, listed as Segniliparus rugosus)
chain: MGDGEERAKRFFQRIGELSATDPQFAAAAPDPAVVEAVSDPSLSFTRYLDTLMRGYAERPALAHRVGAGYETISYGELWARVGAIAAAWQADGLAPGDFVATVGFTSPDYVAVDLAAARSGLVSVPLQAGASLAQLVGILEETEPKVLAASASSLEGAVACALAAPSVQRLVVFDLRGPDASESAADERRGALADAEEQLARAGRAVVVETLADLAARGEALPEAPLFEPAEGEDPLALLIYTSGSTGAPKGAMYSQRLVSQLWGRTPVVPGMPNISLHYMPLSHSYGRAVLAGALSAGGTAHFTANSDLSTLFEDIALARPTFLALVPRVCEMLFQESQRGQDVAELRERVLGGRLLVAVCGSAPLSPEMRAFMEEVLGFPLLDGYGSTEALGVMRNGIIQRPPVIDYKLVDVPELGYRTTDKPYPRGELCIRSTSLISGYYKRPEITAEVFDAQGYYKTGDVMAEIAPDHLVYVDRSKNVLKLSQGEFVAVAKLEAAYGTSPYVKQIFVYGNSERSFLLAVVVPNAEVLGARDQEEAKPLIAASLQKIAKEAGLQSYEVPRDFLIETEPFTTQNGLLSEVGKLLRPKLKARYGEALEARYDEIAHGQADELRALRDGAGQRPVVETVVRAAVAISGSEGAEVGPEANFADLGGDSLSALSLANLLHDVFEVEVPVRIIIGPTASLAGIAKHIEAERAGASAPTAASVHGAGATRIRASELTLEKFLPEDLLAAAKGLPAADQVRTVLLTGANGWLGRFLALEQLERLARSGQDGGKLICLVRGKDAAAARRRIEETLGTDPALAARFAELAEGRLEVVPGDVGEPKFGLDDAAWDRLAEEVDVIVHPAALVNHVLPYHQLFGPNVVGTAEIIRLAITAKRKPVTYLSTVAVAAGVEPSSFEEDGDIRAVVPERPLGDGYANGYGNSKWAGEVLLREAHELVGLPVAVFRSDMILAHTRYTGQLNVPDQFTRLVLSLLATGIAPKSFYQQGAAGERQRAHYDGIPVDFTAEAITTLGAEPSWFDGGAGFRSFDVFNPHHDGVGLDEFVDWLIEAGHPISRIDDHKEWFARFETAVRGLPEAQRQHSLLPLLRAYSFPHPPVDGSVYPTGKFQGAVKAAQVGSDHDVPHLGKALIVKYADDLKALGLL
[2]
  carboxylate reductase activity for converting adipate to adipate semialdehyde (consumption of NADPH, absorbance at 340 nm): accepted adipate as substrate

B3: SEQ ID NO 12: Escherichia coli ω-transaminase, gene product of YgjG (Genbank Accession No. AAA57874.1) (protein, listed as Escherichia coli)
chain: MNRLPSSASALACSAHALNLIEKRTLDHEEMKALNREVIEYFKEHVNPGFLEYRKSVTAGGDYGAVEWQAGSLNTLVDTQGQEFIDCLGGFGIFNVGHRNPVVVSAVQNQLAKQPLHSQELLDPLRAMLAKTLAALTPGKLKYSFFCNSGTESVEAALKLAKAYQSPRGKFTFIATSGAFHGKSLGALSATAKSTFRKPFMPLLPGFRHVPFGNIEAMRTALNECKKTGDDVAAVILEPIQGEGGVILPPPGYLTAVRKLCDEFGALMILDEVQTGMGRTGKMFACEHENVQPDILCLAKALGGGVMPIGATIATEEVFSVLFDNPFLHTTTFGGNPLACAAALATINVLLEQNLPAQAEQKGDMLLDGFRQLAREYPDLVQEARGKGMLMAIEFVDNEIGYNFASEMFRQRVLVAGTLNNAKTIRIEPPLTLTIEQCELVIKAARKALAAMRVSVEEA
[3]
  ω-transaminase activity for converting 6-aminohexanoate to adipate semialdehyde (formation of L-alanine from pyruvate, RP-HPLC): accepted 6-aminohexanote as substrate
[4]
  ω-transaminase activity for converting adipate semialdehyde to 6-aminohexanoate (formation of pyruvate, RP-HPLC): accepted adipate semialdehyde as substrate

B4: SEQ ID NO 2: Escherichia coli thioesterase encoded by YciA (GenBank Accession No. AAB60068.1), N-terminal His-tagged (protein, listed as Escherichia coli)
chain: MSTTHNVPQGDLVLRTLAMPADTNANGDIFGGWLMSQMDIGGAILAKEIAHGRVVTVRVEGMTFLRPVAVGDVVCCYARCVQKGTTSVSINIEVWVKKVASEPIGQRYKATEALFKYVAVDPEGKPRALPVE
modifications: N-terminal His tag
[1]
  thioesterase activity for converting adipyl-CoA to adipate (release of Coenzyme A, absorbance at 412 nm): accepted adipyl-CoA as substrate
